Results reported in US20220168402A1, “PIP4Ks SUPPRESS INSULIN SIGNALING AND ENHANCE IMMUNE FUNCTION THROUGH A CATALYTIC-INDEPENDENT MECHANISM” (Cornell University, priority 2019, published 2022).

T1: PIP5K1A (purified, in vitro kinase assay), Q99755
T1 chain: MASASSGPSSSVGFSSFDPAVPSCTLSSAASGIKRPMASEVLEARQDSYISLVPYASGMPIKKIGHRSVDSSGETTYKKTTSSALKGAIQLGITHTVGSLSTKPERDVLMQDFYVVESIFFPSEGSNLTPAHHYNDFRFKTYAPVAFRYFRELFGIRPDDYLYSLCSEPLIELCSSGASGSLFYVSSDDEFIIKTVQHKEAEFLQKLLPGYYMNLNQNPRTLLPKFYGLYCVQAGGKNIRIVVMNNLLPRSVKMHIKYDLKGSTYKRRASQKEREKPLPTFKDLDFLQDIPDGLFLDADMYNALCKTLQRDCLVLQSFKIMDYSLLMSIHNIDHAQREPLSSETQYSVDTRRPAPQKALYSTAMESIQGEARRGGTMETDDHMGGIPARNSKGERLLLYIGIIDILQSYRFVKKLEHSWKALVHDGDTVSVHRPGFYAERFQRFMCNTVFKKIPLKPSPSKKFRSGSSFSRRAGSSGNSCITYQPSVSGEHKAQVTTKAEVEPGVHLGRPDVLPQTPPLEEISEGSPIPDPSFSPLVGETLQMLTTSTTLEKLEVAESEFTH

B1: PIP4K2C (purified) (protein)
chain: MASSSVPPATVSAATAGPGPGFGFASKTKKKHFVQQKVKVFRAADPLVGVFLWGVAHSINELSQVPPPVMLLPDDFKASSKIKVNNHLFHRENLPSHFKFKEYCPQVFRNLRDRFGIDDQDYLVSLTRNPPSESEGSDGRFLISYDRTLVIKEVSSEDIADMHSNLSNYHQYIVKCHGNTLLPQFLGMYRVSVDNEDSYMLVMRNMFSHRLPVHRKYDLKGSLVSREASDKEKVKELPTLKDMDFLNKNQKVYIGEEEKKIFLEKLKRDVEFLVQLKIMDYSLLLGIHDIIRGSEPEEEAPVREDESEVDGDCSLTGPPALVGSYGTSPEGIGGYIHSHRPLGPGEFESFIDVYAIRSAEGAPQKEVYFMGLIDILTQYDAKKKAAHAAKTVKHGAGAEISTVHPEQYAKRFLDFITNIFA
B2: GST-PIP4K2C^VD (enzyme)
chain: MASSSVPPATVSAATAGPGPGFGFASKTKKKHFVQQKVKVFRAADPLVGVFLWGVAHSINELSQVPPPEIFLPNNFKASSKIKVNNHLFHRENLPSHFKFKEYCPQVFRNLRDRFGIDDQDYLVSLTRNPPSESEGSDGRFLISYDRTLVIKEVSSEDIADMHSNLSNYHQYIVKCHGNTLLPQFLGMYRVSVDNEDSYMLVMRNMFSHRLPVHRKYDLKGSLVSREASDKEKVKELPTLKDMDFLNKNQKVYIGEEEKKIFLEKLKRDVEFLVQLKIMDYSLLLGIHDIIRGSEPEEEAPVREDESEVDGDCSLTGPPALVGSYGTSPEGIGGYIHSHRPLGPGEFESFIDVYAIRSAEGAPQKEVYFMGLIDILTQYDAKKKAAHAAKTVKHGAGAEISTVHPEQYAKRFLDFITNIFA
notes: the text and the Quik-2CVD primer give EIF, which is used here; not shown: glutathione S-transferase (GST) tag from a pGEX vector
B3: PIP4K2A (purified) (protein)
chain: MATPGNLGSSVLASKTKTKKKHFVAQKVKLFRASDPLLSVLMWGVNHSINELSHVQIPVMLMPDDFKAYSKIKVDNHLFNKENMPSHFKFKEYCPMVFRNLRERFGIDDQDFQNSLTRSAPLPNDSQARSGARFHTSYDKRYIIKTITSEDVAEMHNILKKYHQYIVECHGITLLPQFLGMYRLNVDGVEIYVIVTRNVFSHRLSVYRKYDLKGSTVAREASDKEKAKELPTLKDNDFINEGQKIYIDDNNKKVFLEKLKKDVEFLAQLKLMDYSLLVGIHDVERAEQEEVECEENDGEEEGESDGTHPVGTPPDSPGNTLNSSPPLAPGEFDPNIDVYGIKCHENSPRKEVYFMAIIDILTHYDAKKKAAHAAKTVKHGAGAEISTVNPEQYSKRFLDFIGHILT
B4: PIP4K2B (purified) (protein)
chain: MSSNCTSTTAVAVAPLSASKTKTKKKHFVCQKVKLFRASEPILSVLMWGVNHTINELSNVPVPVMLMPDDFKAYSKIKVDNHLFNKENLPSRFKFKEYCPMVFRNLRERFGIDDQDYQNSVTRSAPINSDSQGRCGTRFLTTYDRRFVIKTVSSEDVAEMHNILKKYHQFIVECHGNTLLPQFLGMYRLTVDGVETYMVVTRNVFSHRLTVHRKYDLKGSTVAREASDKEKAKDLPTFKDNDFLNEGQKLHVGEESKKNFLEKLKRDVEFLAQLKIMDYSLLVGIHDVDRAEQEEMEVEERAEDEECENDGVGGNLLCSYGTPPDSPGNLLSFPRFFGPGEFDPSVDVYAMKSHESSPKKEVYFMAIIDILTPYDTKKKAAHAAKTVKHGAGAEISTVNPEQYSKRFNEFMSNILT

Columns and labels:
[1] = molecular target: PIP5K1A (purified, in vitro kinase assay) (UniProt Q99755)
[2] = molecular target: T1, PIP5K1A (purified, in vitro kinase …)
[3] = molecular target: endogenous PIP5K1A (293T lysate) (UniProt Q99755 1-562, limits assumed); assay: GST pulldown from 293T lysates with bead-bound bait, western blot (FIG. 3J)
Description: These lysates and purified protein were incubated together at 4 degrees for 1 hour before the beads were again pelleted, washed with IP buffer three times, eluted with 2M NaCl, and analyzed by SDS PAGE and western blot.

[4] = molecular target: T2, PIP5K1A (Homo sapiens, UniProt Q99755); assay: In vitro kinase assay: conversion of PI(4)P to radiolabeled PI(4,5)P2 by PIP5K1A with purified PIP4K proteins added; type: biochemical; details: for inhibition of PIP5K1A activity (PI(4)P to PI(4,5)P2): purified proteins, PI(4)P liposomes, 2-10 fold molar excess of PIP4K
T2 construct: made in house; host or cells: E. coli
Description: BL21 bacterial cells were transfected with pGEX vectors with PIP4K isoform coding sequence variants. Cells were grown in 1 L of TB at 37° at 200 rpm until 0.8 OD, at which point 500 uL of 1M IPTG was added. Cultures were shaken overnight at room temp for protein induction and pelleted at 5000 g for 15 minutes. Cells were lysed (50 mM Tris pH 7.5, 500 mM NaCl, 10 mM MgCl2, 10% glycerol, DTT, lysozyme, protein/phosphatase inhibitors), sonicated for 1 minute (output 4, continuous duty cycle) and spun down at 10,000 g for 1 hour. Supernatant was kept for further purification and cleavage according to manufacturer's protocol using glutathione sepharose beads.
Cells were trypsinized and normalized for cell number. Cell pellets, or E. coli purified proteins were resuspended in HNE buffer (20 mM HEPES pH 7.4, 100 mM NaCl, 0.5 mM EGTA), and sonicated in the presence of 32P-γ-ATP, and liposomes (10 ug PS, 1 ug PI(4)P in 30 mM HEPES pH 7.4, 1 mM EGTA). Liposome lipids were purchased from Avanti. Reactions were stopped by addition of 50 uL of 4N HCL. To extract lipids, 100 μL of MeOH:CHCl3 (1:1) was added and samples were vortexed 2×30 seconds. Samples were spun down at top speed for 2 min and the organic phase containing phosphatidylinositol lipids (bottom) were separated using thin-layer chromatography (TLC) using 1-propanol: 2N acetic acid (65:35 v/v). TLC plates were prepared ahead of time by coating with 1% Potassium Oxalate. Phosphorylated lipids were visualized by autoradiography on a GE Typhoon FLA 7000 and quantified using ImageQuant TL software.

| Molecule | in vitro kinase assay: conversion of PI(4)P to radiolabeled PI(4,5)P2 by PIP5K1A (FIG. 4H) [1] | in vitro kinase assay: conversion of PI(4)P to radiolabeled PI(4,5)P2 by PIP5K1A (FIG. 3K) [2] | inhibition of PIP5K1A activity (PI(4)P to PI(4,5)P2) [4] | also measured |
| --- | --- | --- | --- | --- |
| GST-PIP4K2C 74DD to 74NN | Mutating 74DD to be 74NN or mutating 91REN to be 91 EED within GST-PIP4K2C did not prevent this protein from inhibiting PIP5K1A | – | – | – |
| GST-PIP4K2C 91REN to 91EED | Mutating 74DD to be 74NN or mutating 91REN to be 91 EED within GST-PIP4K2C did not prevent this protein from inhibiting PIP5K1A | – | – | – |
| B1 | – | PIP5K1A, which is inhibited by PIP4K2C but not PIP4K2C^VD | – | – |
| B2 | – | PIP4K2C^VD failed to inhibit PIP5K1A activity | – | binding result [3]: no binding |
| B3 | – | – | inhibited | inhibition of PIP5K1A activity in presence of detergent ([4]; 0.1% Triton-X100, no PI(4)P liposomes): eliminated the ability of PIP4K2A to inhibit PIP5K1A |
| B4 | – | – | inhibited | – |
